# Assay results published in patent publication US20240101674A1 (OTTIMO PHARMA, published 2024).
# Residue numbers refer to the chain shown, from its start. Names and notes keep the numbering of the source.
# B1: hMAb005 Fab (Fab, V domains shown)
# VH: EVQLVESGGGLVQPGGSLRLSCAASGFTFSSYMMSWVRQAPGKGLEWVATISGGGANTYYPDSVKGRFTISRDNAKNSLYLQMNSLRAEDTAVYYCARQLYYFDYWGQGTTVTVSS
# VL: DIQMTQSPSSLSASVGDRVTITCLASQTIGTWLTWYQQKPGKAPKLLIYTATSLADGVPSRFSGSGSGTDFTLTISSLQPEDFATYYCQQVYSIPWTFGGGTKVEIK
# notes: Human IgG1-kappa Fab, periplasmically expressed in E. coli, detected via c-myc; also called hMAb005 v-domains expressed as human IgG1 Fab; positive control hMAb005 Fab
# B2: MAB02D08 Fab (Fab, V domains shown)
# VH: B1 VH
# VL: B1 VL with T28E, I29S, T31I, T34S
# notes: Library-derived clone screened as human IgG1-kappa Fab in E. coli periplasmic extract; also called MAB02D08 (periprep Fab)
# B3: MAB02A03 Fab (Fab, V domains shown)
# VH: B1 VH
# VL: B1 VL with P8S, T28G, T31P, T34S
# notes: Library-derived clone screened as human IgG1-kappa Fab in E. coli periplasmic extract; also called MAB02A03 (periprep Fab)
# B4: MAB02B03 Fab (Fab, V domains shown)
# VH: B1 VH
# VL: B1 VL with T28P, I29L, T31I, T34S
# notes: Library-derived clone screened as human IgG1-kappa Fab in E. coli periplasmic extract; also called MAB02B03 (periprep Fab)
# B5: MAB05G03 Fab (Fab, V domains shown)
# VH: B1 VH
# VL: B1 VL with Y92A, S93E, I94L, W96F, T97G
# notes: Library-derived clone screened as human IgG1-kappa Fab in E. coli periplasmic extract; also called MAB05G03 (periprep Fab)
# B6: MAB05E08 Fab (Fab, V domains shown)
# VH: B1 VH
# VL: B1 VL with Y92S, S93V, I94T, W96F
# notes: Library-derived clone screened as human IgG1-kappa Fab in E. coli periplasmic extract; also called MAB05E08 (periprep Fab)
# B7: MAB02 IgG1 null (antibody, V domains shown)
# VH: B1 VH
# VL: B1 VL with T28P, I29L, T31I, T34S, Y92A, S93E, I94L, W96F, T97G
# notes: Human IgG1 null format (L234A, L235A, G237A) with human C kappa; only variable domains are tied to the clone
# B8: MAB04 IgG1 null (antibody, V domains shown)
# VH: B1 VH
# VL: B1 VL with T28G, T31P, T34S, Y92S, S93V, I94T, W96F
# notes: as for B7
# B9: MAB01 IgG1 null (antibody, V domains shown)
# VH: B1 VH
# VL: B1 VL with T28G, T31P, T34S, Y92A, S93E, I94L, W96F, T97G
# notes: as for B7
# B10: MAB05 IgG1 null (antibody, V domains shown)
# VH: B1 VH
# VL: B1 VL with T28P, I29L, T31I, T34S, Y92S, S93V, I94T, W96F
# notes: as for B7
# B11: hMAb005 IgG1 null (antibody, V domains shown)
# VH: B1 VH
# VL: B1 VL
# notes: Tested as human IgG1 null (L234A, L235A, G237A) with human C kappa; also called humanized MAb005
# B12: MAB06 IgG1 null (antibody, V domains shown)
# VH: B1 VH
# VL: B1 VL with T28E, I29S, T31I, T34S, Y92S, S93V, I94T, W96F
# notes: as for B7
# B13: MAB05G03 IgG1 null (antibody, V domains shown)
# VH: B1 VH
# VL: B1 VL with Y92A, S93E, I94L, W96F, T97G
# notes: as for B7
# B14: MAB02B03 IgG1 null (antibody, V domains shown)
# VH: B1 VH
# VL: B1 VL with T28P, I29L, T31I, T34S
# notes: as for B7
# B15: MAB02D08 IgG1 null (antibody, V domains shown)
# VH: B1 VH
# VL: B1 VL with T28E, I29S, T31I, T34S
# notes: as for B7
# B16: MAB05E08 IgG1 null (antibody, V domains shown)
# VH: B1 VH
# VL: B1 VL with Y92S, S93V, I94T, W96F
# notes: as for B7
# B17: MAB02A03 IgG1 null (antibody, V domains shown)
# VH: B1 VH
# VL: B1 VL with P8S, T28G, T31P, T34S
# notes: as for B7
# B18: MAB06.8.2 IgG1 null (antibody, V domains shown)
# VH: B1 VH with M33L, A56S, T58K, P61V, L100V
# VL: DIQMTQSPSSLSASVGDRVTITCRASQESGIWLSWYQQKPGKAPKLLIYAASSLQSGVPSRFSGSGSGTDFTLTISSLQPEDFATYYCQQVSVTPFTFGGGTKVEIK
# notes: Human IgG1 null format; only variable domains are tied to the clone
# B19: MAB06.8.6 IgG1 null (antibody, V domains shown)
# VH: B1 VH with M33L, A56S, T58K, P61V, F103Y
# VL: B18 VL
# notes: as for B18
# Molecular target: T1, human PD1 human Fc tagged recombinant protein (human, UniProt Q15116 25-170)
# T1 construct: also called human PD1-Fc; hu PD1; not shown: human Fc tag
# Assay: periprep Fab direct binding ELISA (FIG. 1)
# T1 sequence (Q15116 25-170 limits assumed): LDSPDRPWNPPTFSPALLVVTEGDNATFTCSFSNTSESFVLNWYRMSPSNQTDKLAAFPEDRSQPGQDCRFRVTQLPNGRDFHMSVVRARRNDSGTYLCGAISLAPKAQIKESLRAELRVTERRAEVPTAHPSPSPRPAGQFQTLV
row,Binder,binding result
1,B1,binds

# Molecular target: T2, cynomolgus monkey PD1 human Fc tagged recombinant protein (cynomolgus monkey, UniProt Q15116 25-170 (human entry), limits assumed)
# T2 construct: also called cyno PD1-Fc; cyno PD1; not shown: human Fc tag
# T2 chain: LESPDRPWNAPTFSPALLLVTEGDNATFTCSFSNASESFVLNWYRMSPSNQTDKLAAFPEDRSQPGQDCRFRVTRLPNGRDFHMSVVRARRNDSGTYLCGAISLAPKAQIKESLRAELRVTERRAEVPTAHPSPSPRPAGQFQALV
# Assay: periprep Fab direct binding ELISA (FIG. 1)
row,Binder,binding result
1,B2,binds
2,B3,binds
3,B4,binds
4,B5,binds
5,B1,binds
6,B6,binds

# Molecular target: T3, human VEGFR2 protein (human, UniProt P35968 20-764)
# T3 construct: Recombinant protein used in ELISA; also called hu VEGFR2; KDR
# Assay: periprep Fab direct binding ELISA (FIG. 1)
row,Binder,binding result
1,B2,binds
2,B3,binds
3,B4,binds
4,B5,binds
5,B6,binds

# Molecular target: T4, rhesus VEGFR2 protein (rhesus monkey)
# T4 construct: Recombinant protein used in ELISA; also called rhesus monkey VEGFR2; rh VEGFR2
# T4 chain: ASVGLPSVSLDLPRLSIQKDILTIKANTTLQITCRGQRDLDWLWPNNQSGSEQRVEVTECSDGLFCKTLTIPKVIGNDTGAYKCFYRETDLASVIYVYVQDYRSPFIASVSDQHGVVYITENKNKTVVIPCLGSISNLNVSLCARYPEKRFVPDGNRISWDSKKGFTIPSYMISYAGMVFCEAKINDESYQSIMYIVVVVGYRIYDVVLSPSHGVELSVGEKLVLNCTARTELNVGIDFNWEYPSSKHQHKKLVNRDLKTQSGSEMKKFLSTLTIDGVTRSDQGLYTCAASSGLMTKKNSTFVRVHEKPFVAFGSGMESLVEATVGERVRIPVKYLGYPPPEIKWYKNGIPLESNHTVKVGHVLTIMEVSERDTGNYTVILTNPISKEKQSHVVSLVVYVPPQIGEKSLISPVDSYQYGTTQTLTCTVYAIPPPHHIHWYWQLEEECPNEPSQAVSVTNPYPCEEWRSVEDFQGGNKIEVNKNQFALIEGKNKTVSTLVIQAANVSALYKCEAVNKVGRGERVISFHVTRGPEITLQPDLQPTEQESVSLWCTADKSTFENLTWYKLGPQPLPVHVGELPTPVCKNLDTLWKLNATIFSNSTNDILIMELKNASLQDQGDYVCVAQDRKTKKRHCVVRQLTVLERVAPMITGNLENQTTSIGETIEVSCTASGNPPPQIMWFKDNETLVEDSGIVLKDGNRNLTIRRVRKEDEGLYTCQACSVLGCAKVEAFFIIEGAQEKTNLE
# Assay: periprep Fab direct binding ELISA (FIG. 1)
row,Binder,binding result
1,B2,binds
2,B3,binds
3,B4,binds
4,B5,binds
5,B6,binds

# Molecular target: T1, human PD1 human Fc tagged recombinant …
# Assay: direct titration ELISA, IgG1 null on coated PD1-Fc (FIG. 3A)
# Experimental: (§1) Binding and cross-reactivity of the lead panel to the recombinant proteins was initially assessed by binding ELISA. The human PD1 human Fc tagged recombinant protein and the cynomolgus monkey PD1 human Fc tagged recombinant protein were coated to the surface of MaxiSorp™ flat-bottom 96 well plate at 1 μg/ml. The purified Fab or IgG samples were titrated in two fold serial dilutions starting from 500 nM to 0.98 nM and allowed to bind to the coated antigens. The Fabs were detected using mouse anti-c-myc antibody followed by donkey anti-mouse IgG conjugated to horseradish peroxidase. The IgGs were detected using the mouse anti-human IgG conjugated to horseradish peroxidase. Binding signals were visualized with 3,3′,5,5′-Tetramethylbenzidine Substrate Solution (TMB) and the absorbance measured at 450 nm.
row,Binder,binding result
1,B7,binds
2,B8,binds
3,B9,binds
4,B10,binds
5,B11,binds
6,B12,binds

# Molecular target: T2, cynomolgus monkey PD1 human Fc tagged …
# Assay: as above
# Experimental: as §1
row,Binder,binding result
1,B7,binds
2,B13,binds
3,B8,binds
4,B9,binds
5,B14,binds
6,B15,binds
7,B10,binds
8,B16,binds
9,B11,binds
10,B12,binds
11,B17,binds

# Molecular target: T3, human VEGFR2 protein
# Assay: direct titration ELISA, IgG1 null on VEGFR2 protein (FIG. 3B)
row,Binder,binding result
1,B13,binds
2,B8,binds
3,B9,binds
4,B14,binds
5,B15,binds
6,B10,binds
7,B16,binds
8,B12,binds
9,B17,binds

# Molecular target: T4, rhesus VEGFR2 protein
# Assay: as above
row,Binder,binding result
1,B13,binds
2,B8,binds
3,B9,binds
4,B14,binds
5,B15,binds
6,B10,binds
7,B16,binds
8,B12,binds
9,B17,binds

# Molecular target: T3, human VEGFR2 protein
# Assay: direct titration ELISA, IgG1 null on VEGFR2 protein (FIG. 12C)
row,Binder,binding result
1,B18,binds
2,B19,binds

# Molecular target: T5, biotinylated human PD1-His/AviTag (human, UniProt Q15116 25-170, limits assumed, biotinylated)
# T5 construct: also called human PD1 protein (Alphascreen); not shown: His/AviTag
# Assay: Alphascreen epitope competition, Fab periprep; competitor hMAb005 IgG1 null on biotinylated human PD1-His/AviTag
# Experimental: FIG. 2A-FIG. 2B. Epitope competition analysis of Fab proteins in Alphascreen Anti-PD1 clones were expressed as Fab in E. coli and peripreps were applied in an epitope competition assay using Alphascreen technology.
# The AlphaScreen assay (Perkin Elmer) was performed in a 25 μl final volume in 384-well white microtiter plates (Greiner). The reaction buffer contained 1×PBS pH 7.3 (Oxoid, Cat. nr. BR0014G) and 0.05% (v/v) Tween® 20 (Sigma, Cat. nr. P9416). Periprep samples diluted in reaction buffer were incubated with biotinylated human PD1-His/AviTag at 0.6 nM final concentration for 20 minutes at room temperature. […] The emission of light was measured in the EnVision multilabel plate reader (Perkin Elmer) and analysed using the EnVision manager software. Values were reported as Counts Per Second (CPS) and corrected for crosstalk. Signal reduction percentages were calculated relative to the irrelevant sample.
# T5 sequence (Q15116 25-170 limits assumed): as the sequence (Q15116 25-170 limits assumed) above
row,Binder,percentage signal reduction of hMAb005/PD1 interaction [%]
1,B2,> 75
2,B3,75
3,B4,> 75
4,B5,> 75
5,B6,> 75
